Results published in FireProtDB (doi:10.1016/j.jmb.2010.08.048).

B1: Glucocorticoid receptor, P04150 (parent)
chain: MDSKESLTPGREENPSSVLAQERGDVMDFYKTLRGGATVKVSASSPSLAVASQSDSKQRRLLVDFPKGSVSNAQQPDLSKAVSLSMGLYMGETETKVMGNDLGFPQQGQISLSSGETDLKLLEESIANLNRSTSVPENPKSSASTAVSAAPTEKEFPKTHSDVSSEQQHLKGQTGTNGGNVKLYTTDQSTFDILQDLEFSSGSPGKETNESPWRSDLLIDENCLLSPLAGEDDSFLLEGNSNEDCKPLILPDTKPKIKDNGDLVLSSPSNVTLPQVKTEKEDFIELCTPGVIKQEKLGTVYCQASFPGANIIGNKMSAISVHGVSTSGGQMYHYDMNTASLSQQQDQKPIFNVIPPIPVGSENWNRCQGSGDDNLTSLGTLNFPGRTVFSNGYSSPSMRPDVSSPPSSSSTATTGPPPKLCLVCSDEASGCHYGVLTCGSCKVFFKRAVEGQHNYLCAGRNDCIIDKIRRKNCPACRYRKCLQAGMNLEARKTKKKIKGIQQATTGVSQETSENPGNKTIVPATLPQLTPTLVSLLEVIEPEVLYAGYDSSVPDSTWRIMTTLNMLGGRQVIAAVKWAKAIPGFRNLHLDDQMTLLQYSWMFLMAFALGWRSYRQSSANLLCFAPDLIINEQRMTLPCMYDQCKHMLYVSSELHRLQVSYEEYLCMKTLLLLSSVPKDGLKSQELFDEIRMTYIKELGKAIVKREGNSSQNWQRFYQLTKLLDSMHEVVENLLNYCFQTFLDKTMSIEFPEMLAEIITNQIPKYSNGNIKKLLFHQK

Variants of: B1
Conditions: Homo sapiens; pH 7.8; Thermal; CD; Tris-HCl 25mM; structure 1M2Z; whole UniProt chain shown

Variant | Tm
A605V M752T | 51.5 °C
F602S A605V M752T V702A E705G | 58.6 °C
F602S A605V M752T M560K | 49.9 °C
A605V M752T V702A | 53.6 °C
A605V M752T V702A E705G | 54.4 °C
A605V M752T E705G | 52.9 °C
F602S A605V | 54 °C
E705G | 46.6 °C
F602S | 50.3 °C
M752T | 48.6 °C
F602S A605V M752T | 56 °C
V702A | 47.2 °C
A605V | 49.3 °C
